Experimental data taken from publication PMC11733253.

Biological target: MRAS wild type, recombinant from E. coli (human) (UniProt O14807)
Experiment: ITC

Kd: 8.3 µM
Substance: BRAF-RBD (from UniProt P15056 150-233) (domain or fragment)
